According to PMC2940854, “Crystal Structure of the RNA Recognition Motif of Yeast Translation Initiation Factor eIF3b Reveals Differences to Human eIF3b” (PLoS ONE, 2010):

Biological target: T1, yeast eIF3j (Hcr1) (yeast, UniProt Q05775 1-265)
T1 construct: source: E. coli Rosetta2 (DE3), pGEX-6P-1, purified (GSTrap, PreScission cleavage, second glutathione step, Superdex S-75)
Test: ITC; VP-ITC; 20 µL aliquots of 229 µM eIF3b-RRM^76–170 injected into the cell with 10 µM Hcr1; 200 mM NaCl, 10 mM Hepes pH 7.5, 5% glycerol; single binding site model
Settings: both partners purified

T1 sequence (Q05775 whole entry): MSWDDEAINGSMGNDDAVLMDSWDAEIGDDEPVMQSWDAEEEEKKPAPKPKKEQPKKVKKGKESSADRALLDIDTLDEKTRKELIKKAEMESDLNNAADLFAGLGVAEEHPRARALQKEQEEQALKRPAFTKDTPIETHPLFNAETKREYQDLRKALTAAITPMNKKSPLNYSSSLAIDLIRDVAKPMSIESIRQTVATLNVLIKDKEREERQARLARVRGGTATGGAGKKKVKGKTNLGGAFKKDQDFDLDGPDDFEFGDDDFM

B1: yeast eIF3b-RRM, residues 76-170 (domain or fragment, UniProt P06103 76-170, looked up)
chain: DQYIVVNGAPVIPSAKVPVLKKALTSLFSKAGKVVNMEFPIDEATGKTKGFLFVECGSMNDAKKIIKSFHGKRLDLKHRLFLYTMKDVERYNSDD
notes: also called eIF3b-RRM^76–170; RRM^76–170; source: E. coli Rosetta2 (DE3), pGEX-6P-1, purified (GSTrap, PreScission cleavage, Superdex S-75)
Kd: 7.5 ± 0.5 µM
dH: -9.28 ± 0.217 kcal/mol
stoichiometry N: ~1
